Our source for the amyloid nucleation score values is the supplement of paper PMC12042874.

± gives the uncertainty stated by the source.

A short description of the data set: amyloid nucleation score (Sup35N fusion, yeast selection) (log enrichment); library NNK3; higher = more nucleation; inactive = no reads after selection. The essentials:
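Output and input plasmid inserts were sequenced by Illumina after psi-negative yeast carrying Sup35N fused to peptides of 20 random codons had been induced 24 hours with 100 μM copper sulfate and grown 7 days at 30°C on medium lacking adenine and uracil. The nucleation score is the DiMSum log enrichment of output over input reads, centred on the mode score of non-aggregating sequences. Sequences with under 100 input reads were excluded.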
Substance LFTACNLKIDVLLSTRSFAL displayed an amyloid nucleation score of 1.6 ± 0.079.
In the case of MALEVFF it was “inactive”; in that of NHWGSNWWLVYKVYSGGLLM, “inactive”.
Take TLYRGDKTRNFAMGIKLCMT: the amyloid nucleation score entry was “inactive”.
In the case of SVLICINCNVEHV it was 2.44 ± 0.083; in that of QSWLMPFCLVSSTWKV, “inactive”.
Turning to ESFPEFVEVGICR, the amyloid nucleation score result is “inactive”.
Consider NSVGFACKEFMHVTAQTHKM, for which the amyloid nucleation score result was “inactive”.
In the case of GIYSI it was “inactive”.
In the case of LNELHMFSGPAYLFSVFRDM it was “inactive”; in that of MTYVGGSVQYGRSLRHRIDR, “inactive”.
PRLSAFVLRNYLRPKGYGGA: the amyloid nucleation score entry is “inactive”.
VEHHDFSRSSSAYTRVL: the amyloid nucleation score result is “inactive”.
Regarding CRNKFLVKGAFTRGSREN, the amyloid nucleation score entry is “inactive”.
In the case of MCTNYYITCRSKSCVICRRI it was 2.31 ± 0.059.
As for ICRLGLLFIMTLRYYNVFVR, the amyloid nucleation score entry was “inactive”.
To IVSTSYNWDDACYDRTLQGG belongs “inactive”; to YSEKDLIHRRIFVVNGRS, 1.13 ± 0.12.
For the substance LLCIFDSRCERLNVLAFRYV, the amyloid nucleation score entry was “inactive”.
VFNLLYVGFHVDSIGVGCVI registered an amyloid nucleation score of 1.97 ± 0.096.
For FSAPVLSTLTASLLELKRSG, the amyloid nucleation score entry was “inactive”.
In the case of SRSAY it was “inactive”; in that of AMVYMMNLEIHVYSIRYA, 1.68 ± 0.094; in that of RIKAYVGLFTVSWGSWGRRR, 1.44 ± 0.14.
For TIACS, the amyloid nucleation score entry is “inactive”.
In the case of IFFVYLLSANIGCYEWDVVP it was 0.821 ± 0.12; in that of CQSSVLLCSYCGY, 2.65 ± 0.074; in that of YVNTDVIVHENVFLLNSHNS, 1.69 ± 0.089.
With RLWLRKT, the amyloid nucleation score entry was “inactive”.
ERFLIPSDLNYKYA: the amyloid nucleation score result is “inactive”.
As for YKGFKRIGLEGQFVSSYLFY, the amyloid nucleation score entry was “inactive”.
In the case of GSIDFSSSCECIGDWHHRGY it was “inactive”; in that of ITRGTYRSPFSFNTRFESGS, “inactive”.
As for FCDNQWRHKPTRVTIFFE, the amyloid nucleation score result is “inactive”.
With LNWLAFSR, the amyloid nucleation score result is “inactive”.
NLGYALICQSRVGGTFLVNS: the amyloid nucleation score result is “inactive”.
Regarding IKSERIWDM, the amyloid nucleation score entry was “inactive”.
As for LRVQHFDTFNPANGSTPKVG, the amyloid nucleation score result is “inactive”.
In the case of PCPFILFYSEFTWSRY it was “inactive”; in that of SCASAFKKVLVCSNCSGRFS, -0.133 ± 0.66; in that of LLVWNLMTRFYYF, “inactive”.
Turning to SNPGAMSMCEYGGLFSRWLY, the amyloid nucleation score is -0.516 ± 0.96.
For FWFLYSSRAQRRRRHWI, the amyloid nucleation score result was “inactive”.
For RWNGFVVNTFINTLGRLTKC, the amyloid nucleation score is -0.578 ± 1.
Regarding EGILPYLRYLFRNLSVGCCW, the amyloid nucleation score entry was “inactive”.
In turn, GNISGLNLVCEPIAVGSACE yielded an amyloid nucleation score of -0.962 ± 1.9.
As to WFMRFTLSLVTGLVNGSAWS, the amyloid nucleation score entry was “inactive”.
Take LWHVF: the amyloid nucleation score entry was “inactive”.
In the case of RTKKY, the amyloid nucleation score result is “inactive”.
Consider WRYWDSFFL, for which the amyloid nucleation score result is “inactive”.
SSSDCGNMNTTPRWAGGIGA: the amyloid nucleation score entry was “inactive”.
On to SYDFIMVLPHEDRIDIVQQF, for which the amyloid nucleation score result was “inactive”.
To RNSSYYLMASVDCVRFH belongs “inactive”; to RTYLDYGVNALLCPLTWGFS, -0.071 ± 0.73.
